Test results from paper PMC8103725 (FASEB BioAdvances, 2021).

Biological target: HEG1–KRIT1 interaction (EGFP‐KRIT1 FERM domain binding to HEG1 cytoplasmic tail on beads) (Homo sapiens, UniProt O00522)
Test: Flow cytometry bead assay for the HEG1–KRIT1 FERM domain interaction
Settings: bead assay, compared with wild‐type KRIT1

HEG1–KRIT1 interaction (EGFP‐KRIT1 FERM domain binding to HEG1 cytoplasmic tail on beads), sequence (O00522 417-736): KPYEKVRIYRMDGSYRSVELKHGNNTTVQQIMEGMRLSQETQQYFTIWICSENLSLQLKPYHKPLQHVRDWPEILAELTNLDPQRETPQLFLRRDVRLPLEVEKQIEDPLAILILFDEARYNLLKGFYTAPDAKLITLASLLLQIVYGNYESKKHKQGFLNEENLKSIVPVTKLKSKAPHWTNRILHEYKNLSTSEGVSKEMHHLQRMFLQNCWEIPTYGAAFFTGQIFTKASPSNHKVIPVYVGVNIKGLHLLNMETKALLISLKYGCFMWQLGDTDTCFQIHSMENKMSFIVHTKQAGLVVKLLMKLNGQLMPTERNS

binding to HEG1: dramatic reduction in binding
B1: KRIT1 (L717,721A) mutant: EGFP‐KRIT1 FERM domain mutant with reduced affinity for HEG1 (protein)
chain: KPYEKVRIYRMDGSYRSVELKHGNNTTVQQIMEGMRLSQETQQYFTIWICSENLSLQLKPYHKPLQHVRDWPEILAELTNLDPQRETPQLFLRRDVRLPLEVEKQIEDPLAILILFDEARYNLLKGFYTAPDAKLITLASLLLQIVYGNYESKKHKQGFLNEENLKSIVPVTKLKSKAPHWTNRILHEYKNLSTSEGVSKEMHHLQRMFLQNCWEIPTYGAAFFTGQIFTKASPSNHKVIPVYVGVNIKGLHLLNMETKALLISLKYGCFMWQLGDTDTCFQIHSMENKMSFIVHTKQAGAVVKALMKLNGQLMPTERNS
modifications: left off: His6, N-terminal, state not stated | EGFP, N-terminal, kept
